For two proteins, Km, kcat and kcat/Km results are on record in paper PMC7948467, “Discovery of an ultraspecific triuret hydrolase (TrtA) establishes the triuret biodegradation pathway” (The Journal of Biological Chemistry, 2020).

As a reminder, the Km is the substrate concentration at which the rate is half of its maximum. Usually kcat stands for the maximal rate divided by the concentration of active sites. Usually kcat/Km stands for the turnover number divided by the Michaelis constant.

Substrate in the data set: NC(=O)NC(=O)NC(N)=O
Put plainly: ammonia release, Berthelot assay. The following applies: phosphate buffer. It counts as biochemical, Herbaspirillum sp. BH-1.

The mark [1] stands for this setting: pH 6.5 (optimum), 25 °C, His-tag kept.

B1: TrtA (Herbaspirillum sp. BH-1) (protein)
chain: MIRIDATPYPYQFHPRSTALVVIDMQRDFIEEGGFGSALGNDVRPLAAIVPTVAALLQLAREAGMLVVHTRESHLPDLSDCPRSKRLRGNPTLGIGDVGPMGRILVQGEPGNQILPQLAPVEGELVIDKPGKGAFYATDLHAQLQERRITHLLVAGVTTEVCVQTSMREANDRGYECLVIEDACASYFPDFHRITLEMLTAQGGIVGWRTPLAQLQAGVAAYTGENP
notes: N-terminal 6xHis tag and thrombin site kept, pET28a, E. coli BL21(DE3), codon-optimized; subunit 24 kDa, homodimer
With B1, under setting [1], the Michaelis-Menten constant (Km) was 21 ± 3 µM, the kcat worked out at 11 ± 1 s⁻¹ and the kcat/Km was 530000 ± 100000 M⁻¹ s⁻¹.

B2: TrtA +Cleaved His-tag (Herbaspirillum sp. BH-1) (protein)
chain: B1 chain
notes: N-terminal 6xHis tag cut by thrombin, E. coli BL21(DE3); homodimer ~48 kDa; crystal rows placed here, but may be the C-terminal deletion construct
On to B2, for which, where the note is “pH 8, 25 °C”, the Km amounted to 15 ± 3 µM, the kcat worked out at 8.8 ± 0.4 s⁻¹ and the kcat/Km is 610000 ± 160000 M⁻¹ s⁻¹.
